Laboratory results from patent US20220296690A1 (Pieris, published 2022).

Target: T1, Recombinant human CTLA-4 (human, UniProt P16410 36-161, limits assumed)
T1 sequence (looked up): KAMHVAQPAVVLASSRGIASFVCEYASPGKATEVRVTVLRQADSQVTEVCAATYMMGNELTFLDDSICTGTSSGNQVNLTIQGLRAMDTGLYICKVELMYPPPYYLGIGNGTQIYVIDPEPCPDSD
Experiment: ELISA; recombinant human CTLA-4 coated at 5 µg/mL, T cell culture supernatant added, detected with rabbit anti-NGAL polyclonal antibody and goat anti-rabbit IgG-HRP
Experimental: FIG. 2: Detection of functional T-cell secreted CTLA-4 antagonist by ELISA. The supernatant of human peripheral blood T cells, mock-transduced or transduced with pSIN-(NFAT)6-αCTLA-4 and cultured under activatory conditions (cf. Example 1 and FIG. 1) was analyzed for the presence of functionally active CTLA-4 antagonist SEQ ID NO: 28 by ELISA. Recombinant human CTLA-4 was coated on an ELISA plate as described in Example 1, and culture supernatants of transduced and mock-transduced T cells were added. Plate-bound SEQ ID NO: 28 was detected by primary staining with an anti-NGAL polyclonal antibody from the rabbit, secondary staining using goat anti rabbit IgG-HRP and addition of a chromogenic HRP substrate as described in Example 1.
Supernatants were analyzed for the presence of functionally active Anticalin-based CTLA-4 antagonist by ELISA as described in the following: Recombinant human CTLA-4 at a concentration of 5 μg/mL in PBS was added to each well of a 384 well ELISA plate and incubated over night at 4° C. […] Subsequently, rabbit anti-NGAL polyclonal antibody at a concentration of 1 μg/mL in PBS/0.1% (w/v) Tween20/2% (w/v) BSA was added, and bound antibody was detected using goat anti-rabbit IgG-HRP in a dilution of 1:5,000 in PBS/0.1% (w/v) Tween20/2% (w/v) BSA. […] Fluorescence signals in RFU (relative fluorescence units) were measured using a plate fluorescence reader.

binding result: binds
B1: Anticalin-based CTLA-4 antagonist with Strep-tag II, mature processed secreted form (SEQ ID NO: 28) (designed binder)
chain: QDSTSDLIPAPPLSKVPLQQNFQDNQFQGKWYVVGLAGNRILRQDQHPMLMYATIYELKEDKSYQVTSVISSHKKCLYPIATFVPGSQPGEFTLGNIKSYGDKVSYLVRVVSTNYNQHAMVFFKHADTNYESFSITLYGRTKELTSELKENFIRFSKSLGLPENHIVFPVPIDQCIDGSAWSHPQFEK
notes: also called anti-CTLA-4 Anticalin; αCTLA-4
